Test results taken from US20160053025A1 (SAMSUNG ELECTRONICS, published 2016).

What was measured:
[1] = biological target: T1, c-Met-Fc (#358-MT/CF, R&D Systems) (human, UniProt P08581 25-932); assay: SPR, Biacore T100; bispecific antibody captured by human Fab binder on CM5, c-Met-Fc as analyte
T1 construct: also called human c-Met/Fc fusion protein (R&D Systems); human c-Met/Fc protein; not shown: Fc part
Method: The binding affinity of the anti-c-Met/anti-Ang2 bispecific antibody prepared in Example 1 to c-Met was measured using Biacore T100(GE). For this, a human Fab binder (#28-9583-25, GE Healthcare) was fixed on the surface of CM5 chip (#BR-1005-30, GE) according to manufacturer's manual. About 90˜120 RU of the anti-c-Met/anti-Ang2 bispecific antibody was captured and then, c-Met-Fc (#358-MT/CF, R&D Systems) was added to the captured antibody at various concentrations. Hereto, 10 mM Glycine-HCl (pH 1.5) solution was added, to regenerate the surface. To measure the affinity, the above obtained data were fitted using BIAevaluation software (GE Healthcare, Biacore T100 evaluation software).

[2] = biological target: T2, recombinant hAng-2 (C-His, R&D Systems) (human, UniProt O15123 19-496); assay: SPR, Biacore T100; C-terminal His-tagged human Ang2 captured by anti-histidine antibody on CM5, MA01 as analyte
T2 construct: Bought protein; also called human Ang-2 protein; C-terminal histidine-tagged human Ang2 (R&D Systems); not shown: C-terminal His tag
T2 sequence: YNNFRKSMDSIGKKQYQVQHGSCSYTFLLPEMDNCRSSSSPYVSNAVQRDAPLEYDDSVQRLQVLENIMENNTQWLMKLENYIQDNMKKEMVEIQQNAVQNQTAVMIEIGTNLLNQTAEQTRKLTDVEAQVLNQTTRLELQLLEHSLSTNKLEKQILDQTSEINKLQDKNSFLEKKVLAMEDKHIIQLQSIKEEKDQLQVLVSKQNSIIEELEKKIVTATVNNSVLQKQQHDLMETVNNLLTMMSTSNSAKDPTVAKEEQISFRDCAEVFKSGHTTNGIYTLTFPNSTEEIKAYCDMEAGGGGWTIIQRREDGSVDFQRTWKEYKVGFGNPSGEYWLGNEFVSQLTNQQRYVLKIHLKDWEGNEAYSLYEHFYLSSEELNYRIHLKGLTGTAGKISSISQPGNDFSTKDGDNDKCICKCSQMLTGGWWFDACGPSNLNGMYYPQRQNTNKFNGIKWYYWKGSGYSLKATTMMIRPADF
Method: The binding affinity of the anti-c-Met/anti-Ang2 bispecific antibody prepared in Example 1 to Ang2 was measured using Biacore T100(GE). For this, an anti-histidine antibody (R&D Systems) was fixed on the surface of CM5 chip (#BR-1005-30, GE) according to manufacturer's manual. C-terminal histidine-tagged human Ang2 (R&D Systems) was captured and then, anti-c-Met/anti-Ang2 bispecific antibody MA01 was added to the captured antigen (Ang2) at various concentrations. Hereto, 10 mM Glycine-HCl (pH 1.5) solution was added, to regenerate the surface. To measure the affinity, the above obtained data were fitted using BIAevaluation software (GE Healthcare, Biacore T100 evaluation software).

T1 sequence (P08581 25-932 limits assumed): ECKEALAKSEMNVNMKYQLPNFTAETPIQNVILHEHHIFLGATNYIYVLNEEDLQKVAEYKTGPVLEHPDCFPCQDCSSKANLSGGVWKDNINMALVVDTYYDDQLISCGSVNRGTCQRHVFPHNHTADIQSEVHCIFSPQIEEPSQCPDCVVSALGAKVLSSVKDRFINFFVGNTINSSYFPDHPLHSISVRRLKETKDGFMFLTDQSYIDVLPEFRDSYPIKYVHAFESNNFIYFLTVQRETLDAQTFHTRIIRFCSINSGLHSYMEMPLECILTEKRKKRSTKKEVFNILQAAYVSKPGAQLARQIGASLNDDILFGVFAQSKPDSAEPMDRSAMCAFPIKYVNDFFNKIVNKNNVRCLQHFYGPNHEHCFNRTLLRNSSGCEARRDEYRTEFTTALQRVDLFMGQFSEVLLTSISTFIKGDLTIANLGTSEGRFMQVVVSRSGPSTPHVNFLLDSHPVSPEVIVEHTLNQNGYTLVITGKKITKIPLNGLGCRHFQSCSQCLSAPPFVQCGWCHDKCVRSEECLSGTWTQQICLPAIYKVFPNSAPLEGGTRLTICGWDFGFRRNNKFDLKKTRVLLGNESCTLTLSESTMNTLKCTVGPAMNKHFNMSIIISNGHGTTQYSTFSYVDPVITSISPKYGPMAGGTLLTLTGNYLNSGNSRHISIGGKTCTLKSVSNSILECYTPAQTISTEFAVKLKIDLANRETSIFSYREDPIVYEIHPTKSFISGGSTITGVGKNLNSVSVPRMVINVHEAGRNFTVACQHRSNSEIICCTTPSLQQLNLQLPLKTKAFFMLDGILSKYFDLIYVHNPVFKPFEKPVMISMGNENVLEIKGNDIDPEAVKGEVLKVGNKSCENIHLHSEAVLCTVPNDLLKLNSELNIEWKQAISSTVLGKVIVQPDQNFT

B1: anti-c-Met/anti-Ang2 bispecific antibody MA01 (bispecific antibody, human IgG2, kappa)
heavy: EVQLVESGGGLVQPGGSLRLSCAASGFTFTDYYMSWVRQAPGKGLEWLGFIRNKANGYTTEYSASVKGRFTISRDNSKNTLYLQMNSLRAEDTAVYYCARDNWFAYWGQGTLVTVSSASTKGPSVFPLAPCSRSTSESTAALGCLVKDYFPEPVTVSWNSGALTSGVHTFPAVLQSSGLYSLSSVVTVPSSNFGTQTYTCNVDHKPSNTKVDKTVERKCCVECPPCPAPPVAGPSVFLFPPKPKDTLMISRTPEVTCVVVDVSHEDPEVQFNWYVDGVEVHNAKTKPREEQFNSTFRVVSVLTVVHQDWLNGKEYKCKVSNKGLPAPIEKTISKTKGQPREPQVYTLPPSREEMTKNQVSLTCLVKGFYPSDIAVEWESNGQPENNYKTTPPMLDSDGSFFLYSKLTVDKSRWQQGNVFSCSVMHEALHNHYTQKSLSLSPGKGGGGSGGGGSQVQLQESGPGLVKPSETLSLTCAVSGYSITSDYAWNWIRQPPGKGLEWMGKISYSGKTDYNPSLKSRSTISRDTSKNQFSLKLSSVTAADTAVYYCARGNFEGAMDYWGQGTLVTVSSGGGGSGGGGSGGGGSDIQMTQSPSSLSASVGDRVTITCKASQSVSNDVAWYQQKPGKAPKLLIYYASNRYPGVPSRFSGSGSGTDFTLTISSLQPEDFATYYCQQDYSSPWTFGGGTKLEIK
light: DIQMTQSPSSLSASVGDRVTITCKSSQSLLASGNQNNYLAWYQQKPGKAPKMLIIWASTRVSGVPSRFSGSGSGTDFTLTISSLQPEDFATYYCQQSYSRPYTFGQGTKVEIKRTVAAPSVFIFPPSDEQLKSGTASVVCLLNNFYPREAKVQWKVDNALQSGNSQESVTEQDSKDSTYSLSSTLTLSKADYEKHKVYACEVTHQGLSSPVTKSFNRGEC
- Kd [1]: 0.07 nM
- Kd [2]: 71.6 nM
- koff [2]: 0.00648 s⁻¹
- kon [2]: 90500 M⁻¹ s⁻¹
